{"source": "a protein production outcome set (Wang et al. 2014)"}
{"assay": "label from the status in PepcDB records"}
{"sequence": "MAITVKGLTNKLTRTQRRIAVVEFIFSLLFFLPKEAEVIQADFLEYDTKERQLNEWQKLIVKAFSENIFSFQKKIEEQQLKNQLEIQTKYNKISGKKIDLLTTAVVLCALSEQKAHNTDKPLLISEALLIMDHYSQGAEKKQTHALLDKLL", "protein production": "not failed"}
{"sequence": "MAKAIVSIFVVFFIFFLVISDVPEIEAQGNECLKEYGGDVGFGFCAPRIFPTICYTRCRENKGAKGGRCRWGQGSNVKCLCDFCDDTPQ", "protein production": "not failed"}
{"sequence": "MAKEKTLDDLFHDTLKDIYYAERKILKALPKMARAAQAPELKAAFEKHKEQTETHVERLQQVFEMIGKRAQGKTCEAIEGIVAEGEEIMDEFKGTAALDAGLISAAQAVEHYEISRYGTLKTWAKTIGLKDAVSLLDATLKEEVVTDEDLTKLAMAQVNKKAA", "protein production": "not failed"}
{"sequence": "MAKETVCVTGANGFIGSWIIRTLIEKGYTKIHASIYPGSDPTHLLQLPGSDSKIKIFEADLLDSDAISRAIDGCAGVFHVASPCTLDPPVDPEKELVEPAVKGTINVLEAAKRFNVRRVVITSSISALVPNPNWPEKVPVDESSWSDLDFCKSRQKWYPISKTLAEKAAWEFSEKHGTNIVTIHPSTCLGPLLQPNLNASCAVLLQLLQGSTETQEHHWLGVVHVKDVAKGHVMLFETPDASGRFLCTNGIYQFSEFAALVSKLFPEFAVHKFDKETQPGLTSCNDAAKRLIELGLVFTAVEDAVKETVQSLRDKGFL", "protein production": "failed"}
{"sequence": "MAKGGFPGFGGNINNLVKQAQKMQRDMERVQEELKEKTVEASAGGGAVTVVATGRKDIKEITIKPEVVDPDDVEMLQDLILAAVNEALRKADEMVTAEISKITGGLGGIPGLF", "protein production": "not failed"}
{"sequence": "MAKHLGESKQKLLQLMALSCPIRLNNAPRRLAKQARSQRIKRNISKGPGMSLSRCLSGLSNLLHYRREWLRADLRAGLSVAAIQIPIAIAYAQIVGLPPQYGLYACVLPMIVYALIGSSRQLMVGPDAATCAMLGGAVAPLAMGDLQRTVELSMIVTVLVGLMLIAAGIARAGFIASFFSRPILIGYLNGIGLSLIAGQMGKVVGFKIEGDGFILGLADFLQRLGEIHGLTLAVGLASLGLLIWLPRRYPRVPAALLTVALFTLLAGLLGFDRLGVAILGHVPAGMPELSWPKTTLEESKSLLRDALGIATVSFCSAMLTARSFAARHGYAINANHEFIALGLSNLAAGASQGFAISGADSRTAVNDMAGGKSQLVGIIAALAIALILLFFTAPMAWIPQPALGAVLLMAGWGLLDVKSLKQIYRLSRFEFWLCLLTTVSVLGLGVLPGIMFAVTLAILRLLYSIYQPTDAVLGWMPGIEGQVDIRQYPQARTVPGLVVYRFDDAILFFNADYFKMRLLDTVQRESQPEVVLFDAEAVTDIDVSGIAVLREIRETLAAQGIYFAIARARGTFLAMLERSGMTREMDSQLLFGSVRSGIRTYRIWRNSMRGKQ", "protein production": "failed"}
{"sequence": "MAKIKKYTTKTGKIRYEFQVYAGVDSLTGRQKTTRRRGFKTRKEASIVLSRLELEIEKRGLQEDERRFFRDVCAEWMEQYRLTVRESTLEKTQRIINIHVLPAFGDMVINNITPNVCQKVVNKWFLEAKSYKKWLNYASMIFDYALRAEYVGRNPCTLVTMPRVQEQAGEKLENFWTRDELNTFFDYVTPERDVEQFTMFRVLAYSGIRKGELLALTWKDINFEDNTLRVNKTLTQGLGGKLIVQPPKSRAGRRTIDLDDSTMRYLRQWKGVQRETFLGMGFNTNNVDQLVFASNRNHFRSMNTPTKWLNKAIKATGLKHISIHGFRHTHASLLYQSGVGLKETQQRLGHSRADSSVTLDVYTHTTEQQNVAALQRFENYVEAK", "protein production": "failed"}
{"sequence": "MAKKTGTKEPAPKKEKKKKERRRGKGEGTIVPHASGLFMAQISLGRDPLTGKRIRPTIYDDSEVGVQKKLRKLLIKKDLGKSVKPNKTLVGEWIRIWLDIYSKPNVGIGTWDGYDLNFTNHIENSFIARKTMSGLTTDDLQVYYNMKLLNGRKDGKGGLSTRFVKAIHTVISSAFDQAVTSGHLEKNPASGVRISNKRRPKIKIWNKEQMALYLKAIKKDRLYAAFVTDSKSGLRKSELLALRWSDIDFSTGLTKIERGWVRSPKGTLYLSDLKSENSERTLVFSTDLLKVLLEHKSRQDEEKKTAGKNYIDNGLVFCREDGSYINPSTFTRRHYDLTAKAKLPRISVHALRHSISTALLESGKVDLKQIQEMLGHKDISTTGNYYTDVLERMKQKTSELIDNLIQTEETPAQASLPAAQPSASDLAEEESVEAKNVIDFATRRNEKLFIASNGQKQKNREKAQKP", "protein production": "failed"}
{"sequence": "MAKKVKVITDPEVIKVMLEDTRRKILKLLRNKEMTISQLSEILGKTPQTIYHHIEKLKEAGLVEVKRTEMKGNLVEKYYGRTADVFYINLYLGDEELRYIARSRLKTKIDIFKRLGYQFEENELLNIMDRMSQKEFDATVRISKYIEEKEDALKDFSNEDIIHAIEWLSTAELARDEEYLELLKRLGSILKR", "protein production": "not failed"}
